From PMC7968997 come the findings set out here.

Residue numbers refer to the chain shown, from its start.

Assay in all cases: fluorescence polarization
In general terms: Polarisation of emitted light reports the rotation of a fluorescent probe.

For one series, the target named is T1, RRM1 analog K100A (Homo sapiens, UniProt Q8IUH3 23-202, K100A;F124A;Y165A).
T1 sequence: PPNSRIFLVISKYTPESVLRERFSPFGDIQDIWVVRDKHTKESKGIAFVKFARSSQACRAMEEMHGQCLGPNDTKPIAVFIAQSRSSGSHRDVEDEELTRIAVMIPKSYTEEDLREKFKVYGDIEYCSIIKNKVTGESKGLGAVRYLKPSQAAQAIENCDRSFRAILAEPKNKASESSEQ

For the next series, the target named is T2, RRM2 analog R122A (Homo sapiens, UniProt Q8IUH3 23-202, F29A;F70A;R122A).
T2 sequence: T1 sequence with F7A, F48A, A78K, R100A, A102F, A143Y

The next series has as its target T3, RRM2 analog Y165A (Homo sapiens, UniProt Q8IUH3 23-202, F29A;F70A;Y165A).
T3 sequence: T1 sequence with F7A, F48A, A78K, A102F

Another series concerns the target T4, RRM1 analog F70A (Homo sapiens, UniProt Q8IUH3 23-202, F70A;F124A;Y165A).
T4 sequence: T1 sequence with F48A, A78K

For series [1], the target named is T5, RBM45 RRM1-2 F29A/F70A (RRM2 analog) (Homo sapiens, UniProt Q8IUH3 23-202, F29A;F70A).
T5 sequence: T1 sequence with F7A, F48A, A78K, A102F, A143Y

Series [2] has as its target T6, RBM45 RRM1-2 F124A/Y165A (RRM1 analog) (Homo sapiens, UniProt Q8IUH3 23-202, F124A;Y165A).
T6 sequence: T1 sequence with A78K

As for GGACGG (ssRNA) [GGACGG RNA], the Kd worked out at 4.59 µM with RRM1 analog K100A; 18.7 µM with RRM2 analog R122A; 20.4 µM with RRM2 analog Y165A; 16.8 µM in the series with RRM1 analog F70A; 1.48 ± 0.11 µM in series [1]; 0.788 ± 0.092 µM in series [2].

As usually defined, the Kd is the free concentration of one partner at which half of the binding sites on the other are occupied at equilibrium, for simple one-to-one binding. A higher Kd goes with weaker binding.
